For data set [1], the system named is Nc1ncnc2c1ncn2[C@@H]1O[C@H](COP(=O)(O)O[C@H]2[C@@H](O)[C@H](n3cnc4c(N)ncnc43)O[C@@H]2COP(=O)(O)O)[C@@H](O)[C@H]1O. In words: initial rate, LC quantification of end product AMP (A254). In kind it is biochemical, Streptococcus mutans. The conditions noted are these: 50 mM potassium phosphate pH 7.0, 1 mM MnCl2, 0-0.3 mM substrate. An excerpt: initial rate, LC quantification of end product AMP (A254) on rDhhP-ProS2 (recombinant DhhP, SMU_1297)

In data set [2] the test system is [H][C@@]1(O)[C@]2([H])OP(=O)(O)OC[C@@]3([H])O[C@@]([H])(n4cnc5c(N)ncnc54)[C@]([H])(O)[C@]3([H])OP(=O)(O)OC[C@@]2([H])O[C@@]1([H])n1cnc2c(N)ncnc21. In words: purified protein. The conditions noted are these: 50 mM potassium phosphate pH 5.0, 1 mM MnCl2, 0-0.3 mM substrate.
Excerpt: initial rate, LC quantification of end product pApA (A254) on rGdpP109-657-ProS2 (truncated recombinant GdpP, SMU_2140c)

What is called Km is the concentration of substrate that gives half-maximal velocity. One may read the Vmax as the top rate of the reaction or transport when substrate is in excess. As a reminder, the kcat is the number of substrate molecules converted per active site and unit of time at saturation.

Consider “rDhhP-ProS2 (recombinant DhhP, SMU_1297) (Streptococcus mutans UA159)”, for which, in data set [1], the Km turned out to be 199 ± 65.4 µM, the Vmax was determined as 32.1 µmol/min/mg and the catalytic constant (kcat) came to 36.5 ± 8.08 s⁻¹.
With “rGdpP109-657-ProS2 (truncated recombinant GdpP, SMU_2140c) (Streptococcus mutans UA159)”, in data set [2], the Km was found to be 89.7 ± 7.29 µM, the Vmax is 4.58 µmol/min/mg and the kcat was found to be 4.02 ± 0.2 s⁻¹.

The values are drawn from PMC6170606, “Biological and Biochemical Roles of Two Distinct Cyclic Dimeric Adenosine 3′,5′-Monophosphate- Associated Phosphodiesterases in Streptococcus mutans” (Frontiers in Microbiology, 2018).
